Results reported in patent US20040022777A1, “Fragments and antagonists of heat shock protein 60” (priority 1999, published 2004).

Legend:
Format in all cases: cell-based, mouse
[1] = tested on: bone marrow-derived macrophages of C57BL/6 and C3H/HeN mice; assay: TNFα production by bone marrow-derived macrophages with wild-type Tlr4 (sandwich ELISA)
[2] = tested on: bone marrow-derived macrophages of C57BL/6 and C3H/HeN mice; assay: NO (nitrite) production by bone marrow-derived macrophages with wild-type Tlr4 (Griess reaction); settings: 24 h
[3] = tested on: bone marrow-derived macrophages of C3H/HeJ mice (mutant Toll-like receptor 4); assay: TNFα production by bone marrow-derived macrophages with mutant Tlr4 (sandwich ELISA)
[4] = tested on: bone marrow-derived macrophages of C3H/HeJ mice (mutant Toll-like receptor 4); assay: NO (nitrite) production by bone marrow-derived macrophages with mutant Tlr4 (Griess reaction)

B1: hsp60: Recombinant human hsp60 obtained from StressGen Biotechnologies (protein)
chain: AKDVKFGADARALMLQGVDLLADAVAVTMGPKGRTVIIEQSWGSPKVTKDGVTVAKSIDLKDKYKNIGAKLVQDVANNTNEEAGDGTTTATVLARSIAKEGFEKISKGANPVEIRRGVMLAVDAVIAELKKQSKPVTTPEEIAQVATISANGDKEIGNIISDAMKKVGRKGVITVKDGKTLNDELEIIEGMKFDRGYISPYFINTSKGQKCEFQDAYVLLSEKKISSIQSIVPALEIANAHRKPLVIIAEDVDGEALSTLVLNRLKVGLQVVAVKAPGFGDNRKNQLKDMAIATGGAVFGEEGLTLNLEDVQPHDLGKVGEVIVTKDDAMLLKGKGDKAQIEKRIQEIIEQLDVTTSEYEKEKLNERLAKLSDGVAVLKVGGTSDVEVNEKKDRVTDALNATRAAVEEGIVLGGGCALLRCIPALDSLTPANEDQKIGIEIIKRTLKIPAMTIAKNAGVEGSLIVEKIMQSSSEVGYDAMAGDFVNMVEKGIIDPTKVVRTALLDAAGVASLLTTAEVVVTEIPKEEKDPGMGAMGGMGGGMGGGMF
time of peak levels of secreted TNFα ([1]; C3H/HeN macrophages, 10 μg/ml hsp60): 6 to 12 h
TNFα secretion ([1]; C57BL/6 and C3H/HeN macrophages, LPS 10 ng/ml, hsp60 10 μg/ml, 6 h): rapid secretion of large amounts of TNFα
hsp60 concentration required for eliciting NO [2]: 3 µg/mL
nitrite levels on increasing the hsp60 concentration tenfold ([2]; C3H/HeN macrophages): about five times higher nitrite levels
NO production ([2]; C57BL/6 and C3H/HeN macrophages, LPS 10 ng/ml, hsp60 10 μg/ml): same outcome
TNFα response ([3]; C3H/HeJ macrophages, LPS 10 ng/ml, hsp60 10 μg/ml, oligonucleotides 30 μg/ml, 6 h): no response
TNFα response, dose dependence ([3]; C3H/HeJ macrophages, even at ten times higher hsp60 levels, 6 h): no such response
TNFα production, time course ([3]; Tlr4 defective macrophages, 10 μg/ml hsp60, observation period of 72 h): absent
NO production ([4]; C3H/HeJ (Tlr4 defective) macrophages, LPS 10 ng/ml, hsp60 10 μg/ml, 24 h): complete lack of a nitric oxide response
NO production, time course ([4]; C3H/HeJ macrophages, 10 μg/ml hsp60, up to 72 h): no indication of NO production
NO response on increasing the hsp60 concentration tenfold ([4]; Tlr4 defective macrophages, 24 h): completely refractory
